“Also recorded” adds a separate entry of the source. Each block holds one molecule with its values, some of them ahead of it.
Experiments:
[1] = molecular target: human c-Kit (SCF receptor) on human cells (NSPCs, HUVEC, HBMEC) (human) (UniProt P10721); assay: cell-based or functional assay
[2] = molecular target: mouse c-Kit (SCF receptor) on mouse NSPCs (mouse) (UniProt P05532); assay: cell-based or functional assay
U251 glioma = assay: Subcutaneously implanted U251 human glioma growth; assay type: in vivo, mouse; details: nude mice
SCID mice [3] = assay: In vivo angiogenesis assay, subcutaneous Matrigel plugs with SCF or β-FGF; design: species or system mouse; details: subcutaneous Matrigel in adult SCID mice, fourteen days after injection
Method: Confluent-grown ECs were treated with 50 ng/ml of SCF for 5, 10, 15, and 30 min after 24 hr of serum starvation. The ECs were collected with RIPA lysis buffer (Upstate, Charlottesville, Va.) containing 50 mM NaF, 1 mM Na3VO4, […], and Protease Inhibitor Cocktail (Roche). The antibodies were purchased from Cell Signaling Technology, Inc. (Beverly, Mass.) or as mentioned otherwise. All the primary antibodies were used in a 1:1000 dilution except for the anti-SCF antibody, which was used in a 1:2000 dilution. The primary antibodies were anti-phospho-c-Kit, anti-phospho-MEK1/2 and anti-MEK1/2, anti-phospho-p44/42 MAPK and anti-p44/42 MAPK, anti-phospho-SAPK/JNK and anti-SAPK/JNK, anti-phospho-p38 MAPK and anti-p38 MAPK, anti-phospho-Akt and anti-Akt, anti-phospho-mTOR and anti-mTOR, anti-phospho-4E-BP1 and anti-4E-BP1, anti-SCF and anti-VEGF (Chemicon, Temecula, Calif.), and anti-β-tubulin (Sigma). Re-blotting was done after membranes were stripped by re-blot kit (Chemicon). Tie2 detection in Matrigel plugs from the in vivo Matrigel assay was carried out by immunoprecipitation and immunoblotting. The gel plugs were carefully separated from muscle and skin and homogenized with RIPA lysis buffer. The resulting total tissue lysates ([…]) were immunoprecipitated with Tie2 antibody (Santa Cruz Biotechnology, Inc., Santa Cruz, Calif.) and then analyzed by immunoblot with Tie2 antibody (Zadeh et al. 2004 Am J Pathol 162:467-476).
All adult mice (6-8 weeks of age) were from NCI-Fredrick, and the animal experiments were conducted on an animal experimentation protocol approved by the NCI's animal protection committee (the “ACUC”). […]

c-Kit [4] = molecular target: T1, c-Kit (Mus musculus, UniProt P05532); assay: c-Kit tyrosine phosphorylation by immunoprecipitation and immunoblot, mouse NSPCs; assay type: cell-based; details: 100 ng/ml of rmSCF, 10 min
T1 construct: The 120-kDa and 140-kDa bands represent the c-Kit proteins in the human and mouse NSPCs; endogenous in cells; host or cells: mouse E14 NSPCs (neurospheres)
Method: (§1) Injured dorsal forebrains were dissected 24 hours, 3 days, 5 days, 7 days and 12 days after injury and were homogenized in a lysis buffer containing 50 mM Tris-HCl (pH 8.0), 120 mM NaCl, 0.5% Nonidet P-40, and Protease Inhibitor Cocktail (Roche, Indianapolis, Ind., USA). Brain tissue was kept on ice for 30 min and supernatants were collected after centrifugation. The brain lysates were separated by a 4-12% polyacrylamide gel electrophoresis (Invitrogen) and transferred to the membranes. The filters were blotted with rabbit polyclonal anti-SCF antibody (1:50 dilution; Chemicon, Temecula, Calif., USA). The NSPCs were treated or not treated with 100 ng/ml of rmSCF or were left untreated for 10 min and then were washed with ice-cold PBS. Some mouse NSPCs were treated with rat monoclonal c-Kit blocking antibody, (ACK4; PharMingen, San Diego, Calif., USA) for 30 min at room temperature before SCF stimulation. The NSPCs were resuspended in a protease inhibitor mixture containing radioimmunoprecipitation (RIPA) buffer (1% NP-40, 0.5% Sodium deoxycholate, 0.1% SDS, 0.1 mg/ml PMSF, 0.1 mM NaVO4 in PBS). The cell lysates were pre-cleared with protein A-Sepharose (Amersham Pharmacia Biotech, Piscataway, N.J., USA), incubated with rabbit polyclonal antibody to c-Kit (Clone H-300, Santa Cruz, San Diego, Calif., USA), and collected on protein A-Sepharose beads. […]

c-Kit [5] = molecular target: T2, c-Kit (Homo sapiens, UniProt P10721); assay: c-Kit tyrosine phosphorylation by immunoprecipitation and immunoblot, human NSPCs; assay type: cell-based; details: 100 ng/ml of rmSCF, 10 min
T2 construct: The 120-kDa and 140-kDa bands represent the c-Kit proteins in the human and mouse NSPCs; endogenous in cells; host or cells: human fetal NSPCs (neurospheres)
Method: as §1

mouse NSPCs = assay: Boyden chamber migration assay, mouse NSPCs; assay type: cell-based
Method: (§2) The effects of SCF on NSPC migration were determined by a modified Boyden chamber assay as described previously (Sun, L. et al. 2001 Cancer Res. 61:4994-5001). A 96-well cell migration kit was utilized (Chemicon, Temecula, Calif., USA) and each well was separated into two chambers by a membrane with 8-μm pores. The cells were briefly trypsinized and adjusted to 4×10^5 cells/ml in 1:20 dilution of B27 medium without growth factors. Some cells were pretreated with a c-Kit-blocking antibody (ACK45, PharMingen, San Diego, Calif., USA) for 30 min at room temperature. Migration of NIH 3T3 cell was also assayed as a control. Recombinant mouse SCF (rmSCF) (R&D systems, Minneapolis, Minn., USA) was dissolved in the same medium and adjusted to the various concentrations. After different concentrations of SCF or brain tissue lysates were added to the lower chamber as attractants, 100 μl of the NSPCs (4×10^4) were applied to the upper chamber on the top of membrane. A group of control chambers without rmSCF was also included. After 4 hours of incubation at 37° C., the migratory cells on the bottom of the insert membrane were dissociated from the membrane by incubation with cell detachment buffer.

human NSPCs = assay: Boyden chamber migration assay, human NSPCs; assay type: cell-based
Method: as §2

NIH 3T3 cells = assay: Boyden chamber migration assay, NIH 3T3 negative control cells; assay type: cell-based; details: regardless of the concentration used
Method: as §2

endogenous NSPCs = assay: In vivo progenitor cell migration, BrdU labeling and intracerebral rmSCF injection; design: species or system mouse
SCID mice [6] = assay: In vivo angiogenesis assay, matrigel plug with rmSCF (Example 3); design: species or system mouse; details: rmSCF 50 ng/ml, subcutaneous, 7 days, vs PBS control
Method: Recombinant mouse SCF (rmSCF) was used at 50 ng/ml in an in vivo angiogenesis assay. The matrigel plug containing SCF or PBS control was placed subcutaneously in SCID mice for 7 days, and the blood vessel formation within the gel was examined by H&E staining. […] In the higher magnification figure on the right side, the red blood cells inside of the newly formed vessel are indicated by an arrow.

bMVEC-B cells = assay: bMVEC-B DNA synthesis by thymidine incorporation (Example 3); assay type: cell-based; details: 72 hours
Method: To specifically confirm the pro-angiogenic effects of SCF in the brain, bMVEC-B cells were used. The cells were cultured in the presence of different concentrations of rmSCF (1 ng/ml to 250 ng/ml) or 0.1% BSA only medium for 72 hours. The rate of DNA synthesis was measured by thymidine incorporation.

[7] = rmSCF 3 μg intracerebral, day 7, SCID mice

T1 sequence (P05532 25-979): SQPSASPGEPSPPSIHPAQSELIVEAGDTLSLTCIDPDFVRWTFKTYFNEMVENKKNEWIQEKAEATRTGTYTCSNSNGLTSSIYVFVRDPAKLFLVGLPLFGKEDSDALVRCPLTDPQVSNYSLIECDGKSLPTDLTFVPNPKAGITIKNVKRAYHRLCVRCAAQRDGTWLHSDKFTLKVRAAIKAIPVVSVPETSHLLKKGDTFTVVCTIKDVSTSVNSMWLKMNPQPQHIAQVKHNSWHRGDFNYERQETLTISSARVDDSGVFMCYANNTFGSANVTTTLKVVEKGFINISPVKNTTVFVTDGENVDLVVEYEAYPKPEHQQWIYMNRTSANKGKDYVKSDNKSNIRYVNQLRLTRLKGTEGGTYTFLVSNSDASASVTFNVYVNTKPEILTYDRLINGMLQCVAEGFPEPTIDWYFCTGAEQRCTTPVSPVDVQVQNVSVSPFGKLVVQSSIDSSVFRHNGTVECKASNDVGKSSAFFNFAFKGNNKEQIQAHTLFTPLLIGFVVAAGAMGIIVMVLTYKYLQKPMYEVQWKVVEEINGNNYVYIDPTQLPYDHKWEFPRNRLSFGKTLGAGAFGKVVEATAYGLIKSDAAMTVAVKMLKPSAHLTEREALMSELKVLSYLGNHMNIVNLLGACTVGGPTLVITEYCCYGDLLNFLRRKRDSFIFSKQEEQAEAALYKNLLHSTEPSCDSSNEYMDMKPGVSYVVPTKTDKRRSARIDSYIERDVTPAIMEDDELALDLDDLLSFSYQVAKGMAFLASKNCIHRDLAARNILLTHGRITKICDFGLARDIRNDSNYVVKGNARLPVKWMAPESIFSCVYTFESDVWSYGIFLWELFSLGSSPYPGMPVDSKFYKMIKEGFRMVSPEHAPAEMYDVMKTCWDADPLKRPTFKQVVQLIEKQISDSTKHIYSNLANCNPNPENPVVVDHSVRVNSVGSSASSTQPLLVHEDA
Chain of mouse c-Kit (SCF receptor) on mouse NSPCs (mouse) (P05532 25-979): as above

lowest rmSCF concentration with a statistically significant increase in NSPC migration (Boyden chamber) [1]: 10 ng/mL
lowest rmSCF concentration with a statistically significant increase in NSPC migration (Boyden chamber) [2]: 5 ng/mL
Molecule: Recombinant mouse SCF (rmSCF) (from UniProt P20826 26-189) (ligand)

Molecule: bevacizumab: VEGF antibody (Genentech), systemically administered
subcutaneous tumor growth (U251 glioma): suppressed subcutaneously implanted human glioma growth; also recorded: profound tumor growth suppression

Molecule: β-FGF: positive control angiogenic growth factor (R&D Systems) [reference compound]
angiogenesis in Matrigel plug (H&E, vWF-positive vessels) (SCID mice [3]): high density of blood vessels; also recorded: induced substantial angiogenesis

c-Kit tyrosine phosphorylation following SCF stimulation (c-Kit [4]): strongly phosphorylated
c-Kit tyrosine phosphorylation following SCF stimulation (c-Kit [5]): strongly phosphorylated
B1: rmSCF: Recombinant mouse SCF (rmSCF) (R&D systems) (protein)
chain: KEICGNPVTDNVKDITKLVANLPNDYMITLNYVAGMDVLPSHCWLRDMVIQLSLSLTTLLDKFSNISEGLSNYSIIDKLGKIVDDLVLCMEENAPKNIKESPKRPETRSFTPEEFFSIFNRSIDAFKDFMVASDTSDCVLSSTLGPEKDSRVSVTKPFMLPPVA
lowest SCF concentration with statistically significant increase in cell migration (mouse NSPCs): 5 ng/mL
NSPC migration (mouse NSPCs; rmSCF 5-500 ng/ml, 4 hours): stimulated in a dose-dependent manner; also recorded: significant chemoattractive effect on NSPC in a dose dependent manner
lowest SCF concentration with statistically significant increase in cell migration (human NSPCs): 10 ng/mL
NSPC migration (human NSPCs; rmSCF 5-500 ng/ml, 4 hours): stimulated in a dose-dependent manner; also recorded: significant chemoattractive effect on NSPC in a dose dependent manner
migration of NIH 3T3 cells (NIH 3T3 cells): did not induce migration
number of BrdU-positive cells in SCF-injected area (1.5-mm^2 section) compared to the contralateral side (endogenous NSPCs; [7]): approximately twice
number of BrdU-positive cells in injected area, SCF-treated compared to PBS-treated animals (endogenous NSPCs; [7]): 2.3 times
BrdU-positive cells in the SCF-injected area (endogenous NSPCs; vs contralateral side and PBS-injected animals, day 7): significant numbers of BrdU-positive cells
blood vessel formation within the matrigel plug (H&E) (SCID mice [6]): obviously abundant
lowest concentration at which bMVEC-B responded to SCF stimulation (bMVEC-B cells): 1 ng/mL
bMVEC-B DNA synthesis (thymidine incorporation) (bMVEC-B cells; rmSCF 1 ng/ml to 250 ng/ml): strongly stimulated bMVEC-B DNA synthesis
